{"source": "the DeepSol protein solubility set"}
{"test": "soluble on expression in E. coli; label from the status in PepcDB or PDB records"}
{"sequence": "MAGATDQRRQEVLRAIVADYIASQEPVGSKALLERHNLKVSSATIRNDMAVLESEGYIVQQHASSGRIPTEKAYRTFVDSINDIKPLSVAERRAILGFLERGVDLEDVLKRSVQLLSQLTRQAAVIQLPNLNVSRVKHCEVVLLSPVRLLLVLITDNGRVEQRNVEVDQICEPEHVAKMRDVLNRALDNKTLSDASASLAELAAGEILVDPDIQPMILRCATVLIETLVEQPNDRLILAGASNLTHIAREMPSSLPAMLEALEEQVVVLKLLTNVRDLGHVSVLIGEENEDEQLRGTSVVTTGYGAQGATLGGLGVVGPTFMDYSGTMSKVYAVAHYVSRVLSGG", "soluble on expression in E. coli": "not soluble"}
{"sequence": "MKVVILGSGSYSGTPKPLCNCENCSIARRNPAFRRTRFSLYIEEGKILVDPSPDLHYHLERLNKKVENVFITHAHFDHIFGVPDLQVYKKLIISSNTLGIKVAKELSRLAFGSEVPSGYEWRYEELQFWNEYSFDNFRVIHFPVIHSLEIAGGYLFEIKGRRIGVTGDTGPEILKDEKVKKLLEGVDILIVEMTKRESIPGVHLGVSDSIEFAKVVGASYTVFAHISHTNYSHEVLEKRVRESGVQGEVARDFTIIEVLEHHHHHH", "soluble on expression in E. coli": "not soluble"}
{"sequence": "MKILKDTVLFGLFASYADGVRNGEEKLSAAYDDFATLLATLPTDGTNICAQLRRLFYTKIELRGIQETVSTNGMERHVLFDVYIGKALALLDAEEQMMKEVLRHGGTEAMGLKEEAVCRNGKKGSVTLTWNGTDSDLIELVAALMAAGVIGTAEGRELKVVDVIRVFEEVFHLKINALYTKRGKVFDRCTDTTPFIDSLRRSYNRMLDARLA", "soluble on expression in E. coli": "not soluble"}
{"sequence": "VTTMHDVARAAGVSQAAVSYAYNQPHKLSAARRAHIFQVAAELGYAGPNPAGRNLRTGQVGALGLMITDSLRYAFDDPATSQLLKGISEVGELAEVALTLLPCPLESTRVAEGSGVLVRGAVDGFLAYAMPDGHPGMQTAMSRRLPIVVIDGPNPGGLPRVGIRDRQAAKEIAEHVLSLGHRRVGFLVDRLVPDGKGGPVDAARTRAARDHVMKERLAGYASACRKYTVPWSSTVVVEAGGFDYELSRTAVETLLDAGPVTAVIAASDLLALAAIDVAHERGLRVPQDLSVVGFDDIPAARAAGLTTVRQPLVDKGREAAQLLLDIIGGGAGREITLPTELVVRESAGPVTADR", "soluble on expression in E. coli": "not soluble"}
{"sequence": "MLEVSVMTIRRDLHQEDEPLPLTLLGGYIVMVNKPAPSMPVIHDVPKNHRDDLPIAILAAGMVNENDLIFFDNGQEIPLVISMIPDAITFTGICYSHRVFVALNEKPNVTAILCGGTYRARSDAFYDASNSSPLDSLNPRKIFISASGVHNHFGVSWFNPEDLATKRKVMNRGLRKILLARHALFDEVASASLAPISAFDVLISDRPLPADYVTHCQNGSVKIITPDSEDELEHHHHHH", "soluble on expression in E. coli": "not soluble"}
{"sequence": "TNRLSAYTSHRISKYNDRQTNTSLDINIGKFSSNTNYFFYHTDGWQNSPFEIKKKKGSGEPVLEETYKKTFRAQENQGVSQSLSYYATNNLSFSGNVQYNKRQIFTPTFSEKKAYDMDYRALTASLGTNYLFPNGLHTLSFDAVYDRFRFGYLYHDKDSSESLINNQGQTEQPTFFPGQLRNKNDQIRYTAEARGVFTLPYAQKLTGGLEYFREELISPYNLITDKADASTLSAYVQDEWKPLDWFNMTAGFRLVHHQEFGTRMTPKVSILAKYGPLNFRATYANGYKTPTLKELFARNELTTMGSHNLYLGNADLKPQMSDYYALGLEYNQGPISFSATVYDNELRNLISFMDIPTSPEHEAQGIKKTKQYANIGKARSRGLDVLCDASIGWGIKLGAGYSLVEAKNLQTDEWLEGAARHRANVHADWVHYWGQYRLGVSLFGRIQSERYYKDGNAPDYTLWRLATSHRFAHFRHIILDGTLGIDNLFDYVDDRPMGVNYATVTPGRTFFAQIAIRFNN", "soluble on expression in E. coli": "not soluble"}
{"sequence": "MAHHHHHHMSGVNAWGRMHTPAKQSQFTLDMFEEWKAKQNEDIAQRGADRDPAVEEEHNRYMLRQNLNAYVCYKELDRYTTCLEDKRLIRRRDDEDGARGGGTGVSLASSFEINTRNKVNEKLCRATHNTYVSCMSSQKNQEVVLQSASLEPHCTERRAKLFRCLRENQVSEAQTNTPQCTDTYRSLLRCGLNHLWNHYWREITKFSDTDEFHLYELSRDDNKKQAYLRALTTSEAQRQSHLREARDTMLGYYLDPKAAQKGDS", "soluble on expression in E. coli": "not soluble"}
{"sequence": "MMMLPEACIANILAFTSPADAFSSSEVSSVFRLAGDSDFVWEKFLPSDYKSLISQSTDHHWNISSKKEIYRCLCDSLLIDNARKLFKINKFSGKISYVLSARDISITHSDHASYWSWSNVSDSRFSESAELIITDRLEIEGKIQTRVLSANTRYGAYLIVKVTKGAYGLDLVPAETSIKSKNGQISKSATYLCCLDEKKQQMKRLFYGNREERMAMTVEAVGGDGKRREPKCRDDGWMEIELGEFETREGEDDEVNMTLTEVKGYQLKGGILIDGIEVRPKT", "soluble on expression in E. coli": "soluble"}
{"sequence": "MGSDKIHHHHHHMKDSFRTIYNGASVPLAEIPPVDINEFLQGILDSVDRGWRIVSYFGIPAPSSTALVCILANKAEGRLAAARTETSDSHVPSLSSLITQVQLFEREIAEQCGLIFDGHPWFKPVRFHHSFVPGRDAWDRTADEPLRVGVMDYYQVAGDEVHEVAVGPVHAGIIEPGHFRFQCHGEEVFHLEISLGYQHRGIEAGLAGGPHPRTLQVMETAAGDTTIGHGQAYCMIMESLGGIKAPPRAEVLRGIALELERLANHTGDLGAIAGDVGYLPTSSFCGRIRGDFLNMTAVLCGSRFGRGLLVPGGTIFDLTPGLRDDLLKRLAEARRDLTNAIELLWSSPSVMGRLEGTGTLTREQALELGLVGPAARACGIKRDVRLDYPFGIYRMTHLPVATVFHGDVCARTMIRWLEAQKSMDFIEEQLRQLPGGGHRVATAPCAGGRLAVALTEGWRGEICHVAVTDDAGRFSRYKIVDPSFHNWQGLALALRGQQISDFPLCNKSFNLSYCGFDL", "soluble on expression in E. coli": "not soluble"}
{"sequence": "MGSDKIHHHHHHVSEALLEQAVSDVMPTKLAIIMRGLPGSGKSYWVEQFITSQGIEQAIHIRQHGLFSTDRYFYQQGQYRFNPQKIGQYHQANLTAFIQALARKEPIVICDNTNIAKWEFMAYEAAAKALGYQVKVVLVGQPDNDQHQQLCAQRNQHQVSLAHIQKMAQLFEE", "soluble on expression in E. coli": "not soluble"}
{"sequence": "MDGPHGTPVLDRIAKLREELPPPAVPGKGQKTDGRWFDGNGAVRDSVSGKDVDSEEAWRLLRESGIPLPRPPVVAHAEMKVAAAMRRLNVRHAVLVITNVPCDERWSCENLLPAVLPVGCSLSVHGPGYQRTFHGRTPKW", "soluble on expression in E. coli": "not soluble"}
{"sequence": "MKKKDTCEIFGYDEEKVNRIQGDLQTVDISGVSQILKAIADENRAKITYALCQDEELCVCDIANILGVTIANASHHLRTLYKQGVVNFRKEGKLALYSLGGEAIRQIMMIALAHKKEVKVNV", "soluble on expression in E. coli": "soluble"}
{"sequence": "MSTYLIGDIHGCLDELLALLAQVNFDPQQDTLWLTGDLVARGPASLDVLRYVRSLGPAVRMVLGNHDLHLLAVYAGISRNKPKDRITPLLDAPDADELINWLRRQPVLQVDDQLKLIMAHAGITPQWDIETAKMCAREVEAVLSSDSYPLFLDAMYGDMPNNWSPELTGLARLRFSTNALTRMRFCFPNGQLDMICKDTPENAPAPLKPWFDLPRLVDPEYSIIFGHWASLEGKGVPEGIYGLDTGCCWGGDLTLLRWDDKRYFTQRAFKAEAEINNNNGFAAGEAVQH", "soluble on expression in E. coli": "not soluble"}
{"sequence": "MNSENSFSSSEHITVLLHEAVNGLALKENGIYIDGTFGRGGHSRFILSQLSSNGRLIAVDRDPRAIAEAHKIQDLRFQIEHNSFSHIPEICDKLNLVGKIDGILLDLGVSSPQLDEAERGFSFMKDGPLDMRMDTTQGLSAEEWLKQVSIEDLTWVLKTFGEERFAKRIATAIVDFNKSAVKNGTEFLSRTSQLAELISQAVPFKDKHKHPATRSFQAIRIFINSELDELESLLNSALDMLAPEGRLSIISFHSLEDRMVKHFMKKQSKGEDIPKGLPLREDQIQRNQKLRIIGKAIQPSDAEIQANPRSRSAILRVAERILEHHHHHH", "soluble on expression in E. coli": "soluble"}
{"sequence": "MGSDKIHHHHHHMTPTVLLANPRGFCAGVDRAIAIVERALEKFGAPIYVRHEVVHNTFVVDDLKRKGAVFVEELSEVPAGATVIFSAHGVSQAVRTEAAARGLTVFDATCPLVTKVHVEVSKMRDKGYEIVMIGHKGHPEVEGTLGQSAGGMYLVETPGDVATLEVTNPDCLAYVTQTTLSVDDAARVVDALRARFPTITGPKKDDICYATQNRQDAVKHLASQCDVVIVVGSPTSSNSNRLREVAENLGIAAYMVDNADEIDPRWVSGNQRVGVTAGASAPDVLVRAVIDRLERLGICSVSELDGVQEKVGFPLPRELA", "soluble on expression in E. coli": "not soluble"}
{"sequence": "CHEASAIGMKDTIGVGKGTVIFDDFEEADAIFVIGQNPGTNHPRMLEPLREAVKRGAQVICLNPLKERGLERFQNPQMPIEMLSNGSEPTNTAYLRPALGGDMAVFRGIAKFLLQWEREALQNGGKAVFDREFIKQHTIGIDEYLAEVDATSWEHIAEQSGLDLSEIEMVASMYRRAERVIMCWAMGLTQHRHSVPTIKEVANVQMLRGNVGKPGAGLSPVRGHSNVQGDRTMGIDEKPSDLLLDRIESRFNFD", "soluble on expression in E. coli": "not soluble"}
{"sequence": "VPRIRKLVAALHRRGPHRVLRGDLAFAGLPGVVYTPEAGLHLPGVAFGHDWLTGTSRYSGLLEHLASWGIVAAAPDSERGLAPSVLNLAFDLGVALDIVAGVRLGPGKISVHPAKLGLVGHGFGGSAAVFAAAGLTGTHVKSVAAIFPTVTNPAAEQPAATLDVPGLILTAPGDPKTLTSNALGLSRAWDKATLRIVSKARAGGLVEGRRLTKVLGLPGPHRRTQRSVRALLTGYLLYTLGGDKTYRRFADPDLQLPKTDPIDPEAPPITPGEKIVTLLK", "soluble on expression in E. coli": "not soluble"}
{"sequence": "MDGCYGISDSVGMITQPYRLYVERTDCKKNMARYYAMEITTTLFGDACLTRSWGRIGKRGQSKMHHFEREEEAVDLFLTLTRQKRSRGYRPATGRDRGLEHHHHHH", "soluble on expression in E. coli": "not soluble"}
{"sequence": "MNPYQAHRIKKLKYQLENAESYEEWKSTALQLDEETGLQEWKYDNCSAYFDAELISYRLNLLRKYRLQQRVMDSVYLLQEGLTHDIANIGHPMLFAATYVGTKQIIEDYIEEVSLSLAFIAASQCQTLTVAEKLKFFKNCQKTYGLEHHHHHH", "soluble on expression in E. coli": "not soluble"}
{"sequence": "GAMGDPGLVSAYGAGLEGGVTGNPAEFVVNTSNAGAGALSVTIDGPSKVKMDCQECPEGYRVTYTPMAPGSYLISIKYGGPYHIGGSPFKAKVTGPRLV", "soluble on expression in E. coli": "soluble"}
{"sequence": "SLKNSESHGEADGGLRERKKRETKKRLTEKGIALFLERGFDNTTLDEIASAAGISRRTFFYYFKSKDEILLSLQSGIGEMLADAVRRAPSSSTPIEVVRDAAIGVCKVIPTNDMIEMDRLMRTSPSVQARKQVSYVQQEGEIYEALSERWPEPERSTALRVVAMLSVGAMRIAGDIFSQEKGVRPMVDLLEEAFGSLIQEVRSGDPRV", "soluble on expression in E. coli": "soluble"}
{"sequence": "METESWKLLESSIIYYEGNPIGTVAAQDPELAALNYDQCFLRDFVPSAFVFLMDGQTDIVRNFLIETLTLQSHEKEMDCFQPGAGLMPASFKVESDGSKEYLVADFGEKAIARVPPVDSCMWWILLLRAYEKATGDLTLAREPKFQAGIKLILDLCLAHRFSMYPTMLVPDGAFMIDRRMGVYEHPLEIQVLFYAALRAARELLLPDGDGEQYLNKVHGRLGALQYHIRNYYWVDLKRLREIYRYKGNEFGKEIANKFNIFSQSIPDWVIEWLPEKGGYLAGNLGPGRMDFRFFALGNLMAILAGLASEEESQRIMNLFAHRWEDLIGYMPVKICYPALQGLEWQIVTGCDPKNIPWSYHNGGNWPVLLWLFTAAALKTGKVELAHEAIAIAEGRLSNDKFPEYYDGNNGRLIGKEARIYQTWSIAGLLVAKQFLANPDHVEFISFPDTFIGPGCSLLEHHHHHH", "soluble on expression in E. coli": "soluble"}
